These results are taken from paper PMC8913847.

The target of the test is T1, IRF-3, endogenous in SeV-infected 293T cells (phosphorylated) (human (endogenous in 293T)), Q14653.
T1 chain: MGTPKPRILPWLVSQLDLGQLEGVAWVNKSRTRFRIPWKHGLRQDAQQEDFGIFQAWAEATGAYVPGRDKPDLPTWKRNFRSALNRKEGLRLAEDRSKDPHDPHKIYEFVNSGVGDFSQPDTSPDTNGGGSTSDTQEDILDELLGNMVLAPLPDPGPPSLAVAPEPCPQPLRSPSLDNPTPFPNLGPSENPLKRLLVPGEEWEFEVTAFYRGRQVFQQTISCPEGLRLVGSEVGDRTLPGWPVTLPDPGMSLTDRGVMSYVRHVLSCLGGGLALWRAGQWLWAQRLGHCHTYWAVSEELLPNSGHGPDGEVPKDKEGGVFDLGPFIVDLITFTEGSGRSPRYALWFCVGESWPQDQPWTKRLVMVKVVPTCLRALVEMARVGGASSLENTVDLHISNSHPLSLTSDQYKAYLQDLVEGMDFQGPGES
Kind of test: native gel or EMSA; native PAGE (7.5% gel, 0.2% sodium deoxycholate in the upper chamber buffer) of total lysates of 293T and 293T DDX3KO cells infected with SeV for the indicated times; immunoblot for IRF-3. The conditions noted are these: remark: other sources report otherwise. A general note: A gel shift assay detects complexes by their altered migration in electrophoresis.

B1: IRF-3, endogenous in SeV-infected 293T cells (phosphorylated), Q14653 1-427 (natural protein)
chain: T1 chain
modifications: here or on the partner: phosphorylation detected with phospho-specific antibody (S396); mobility retardation suggesting phosphorylation at multiple sites; phosphorylation detected with phospho-specific antibody (S396); mobility retardation suggesting phosphorylation at multiple sites
Broadly, the stoichiometry N is a count of units in the complex or per binding partner. Consider B1, for which the stoichiometry N turned out to be 2.
